Publication PMC7641746 (Nucleic Acids Research, 2020)

Key:
MED1 (50–660) = MED1 (50–660) (human, UniProt Q15648 50-660); experiment: HDX-MS
VDR;RXRα ΔNTD = VDR;RXRα ΔNTD (Homo sapiens;Homo sapiens, UniProt P11473;P19793 1-427;130-462, |); experiment: ITC
[1] = molecular target: VDR;RXRα ΔNTD;MED1 (50-660) (Homo sapiens;Homo sapiens;Homo sapiens, UniProt P11473;P19793;Q15648 1-427;130-462;50-660, ||); experiment: SEC-MALLS
Sequence of VDR;RXRα ΔNTD;MED1 (50-660) (Q15648 50-660, stated change not applied, one chain of several): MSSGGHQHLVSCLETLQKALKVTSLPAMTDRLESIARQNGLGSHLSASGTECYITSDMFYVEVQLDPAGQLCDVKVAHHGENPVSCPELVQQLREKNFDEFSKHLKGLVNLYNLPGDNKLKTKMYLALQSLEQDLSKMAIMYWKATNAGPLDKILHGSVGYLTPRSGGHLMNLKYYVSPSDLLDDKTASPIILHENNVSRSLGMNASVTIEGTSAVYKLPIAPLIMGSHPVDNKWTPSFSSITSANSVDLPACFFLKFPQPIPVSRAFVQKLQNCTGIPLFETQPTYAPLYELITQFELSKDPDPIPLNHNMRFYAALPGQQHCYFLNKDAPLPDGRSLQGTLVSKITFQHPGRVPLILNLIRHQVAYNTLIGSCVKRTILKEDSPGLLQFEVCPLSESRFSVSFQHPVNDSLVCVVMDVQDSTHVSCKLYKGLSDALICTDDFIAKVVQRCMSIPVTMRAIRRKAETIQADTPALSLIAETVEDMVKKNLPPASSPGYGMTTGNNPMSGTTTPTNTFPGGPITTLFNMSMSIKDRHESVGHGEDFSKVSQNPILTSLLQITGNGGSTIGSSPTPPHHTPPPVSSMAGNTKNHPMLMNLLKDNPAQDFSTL

Sequence of MED1 (50–660) (Q15648 50-660): as the sequence (Q15648 50-660, stated change not applied, one chain of several) above

| Binder | binding result (MED1 (50–660)) | binding result (VDR;RXRα ΔNTD) | binding result [1] |
| --- | --- | --- | --- |
| full-length HsVDR (1–427) (receptor) MEAMAASTSLPDPGDFDRNVPRICGVCGDRATGFHFNAMTCEGCKGFFRRSMKRKALFTCPFNGDCRITKDNRRHCQACRLKRCVDIGMMKEFILTDEEVQRKREMILKRKEEEALKDSLRPKLSEEQQRIIAILLDAHHKTYDPTYSDFCQFRPPVRVNDGGGSHPSRPNSRHTPSFSGDSSSSCSDHCITSSDMMDSSSFSNLDLSEEDSDDPSVTLELSQLSMLPHLADLVSYSIQKVIGFAKMIPGFRDLTSEDQIVLLKSSAIEVIMLRSNESFTMDDMSWTCGNQDYKYRVSDVTKAGHSLELIEPLIKFQVGLKKLNLHEEEHVLLMAICIVSPDRPGVQDAALIEAIQDRLSNTLQTYIRCRHPPPGSHLLYAKMIQKLADLRSLNEEHSKQYRCLSFQPECSMKLTPLVLEVFGNEIS | binds |  |  |
| rat Nppa (rANF1) DR3 VDRE (dsDNA) DNA 1: AGAGGTCATGAAGGACATT DNA 2: AATGTCCTTCATGACCTCT |  | binds | binds |
| HsRXRαΔNTD (130–462) (receptor) FTKHICAICGDRSSGKHYGVYSCEGCKGFFKRTVRKDLTYTCRDNKDCLIDKRQRNRCQYCRYQKCLAMGMKREAVQEERQRGKDRNENEVESTSSANEDMPVERILEAELAVEPKTETYVEANMGLNPSSPNDPVTNICQAADKQLFTLVEWAKRIPHFSELPLDDQVILLRAGWNELLIASFSHRSIAVKDGILLATGLHVHRNSAHSAGVGAIFDRVLTELVSKMRDMQMDKTELGCLRAIVLFNPDSKGLSNPAEVEALREKVYASLEAYCKHKYPEQPGRFAKLLLRLPALRSIGLKCLEHLFFFKLIGDTPIDTFLMEMLEAPHQMT | binds |  |  |
